Patent US20210032330A1

B1: anti-TIM-3 monoclonal antibody 16-K5-A (antibody, V domains shown)
VH: QVQLQQSGAELVKPGASVKLSCKASGYTFTSSDINWVRQRPEQGLEWIGWIFPGDGSTKYNEKFKGKATLTTDKSSSTAYMQLSRLTSEDSAVYFCARGLDYWGQGTTLTVSS
VL: DIKMTQSPSSMYASLGERVTITCKASQDINSYLGWFQQKPGKSPKTLIYRADRLVDGVPSRFSGSGSGQDYSLTISSLEYEDMGIYYCLQYDEFPLTFGAGTKLELK
B2: anti-TIM-3 monoclonal antibody 6-I13-A (antibody, V domains shown)
VH: EVQLQQSGPELEKPGASVKISCKASGYSFTGYNMNWVKQSNGKSLEWIGNIDPYYGVTSYNQKFKGKATLTVDKSSSTAYMQLKSLTSEDSAVYYCASYSLTYDGYYPFAYWGQGTLVTVSA
VL: DIVLTQSPASLAVSLGQRATISCRASKSVSTSGYSYMHWYQQKPGQPPKLLIYLASNLESGVPARFSGSGSGTDFTLNIHPVEEEDAATYYCQHSRELPYTFGGGTKLEIK
B3: anti-TIM-3 monoclonal antibody 10-M21-A (antibody, V domains shown)
VH: DVQLQESGPTLVKPSQTLSLTCSVTGDSITSGYWNWIRKFPGNKLEYMGYISYSGSTYYNPSLKSRISIIRDTSKNQYYLQLNSVTTEDTATYYCVSGNHFDYWGQGTTLTVSS
VL: DIQMTQSPSSLSASLGGKVTITCKASQDINRYIAWYQHKPGKGPRLLIHYTSTLQPGIPSRFSGSGSGRDYSFSISNLEPEDIATYYCLQYDNLLFTFGSGTKLEIK
B4: anti-TIM-3 monoclonal antibody 16-L3-A (antibody, V domains shown)
VH: QVQLQQSGPELVKPGASVKMSCKASGYTFTSYYIHWVKQRPGQGLEWIGWIYPGDGSTKYNEKFKGKTTLTADKSSSTAYMLLSSLTSEDSAIYFCATDRYDVAYWGQGTLVTVSA
VL: EIVLTQSPALMAASPGEKVTITCSVSSSISSSNLHWYQQKSETSPKPWIYGTSNLASGVPVRFSGSGSGTSYSLTISSMEAEDAATYYCQQWSSYPLTFGAGTKLELK
B5: anti-TIM-3 monoclonal antibody 5-K4-A (antibody, V domains shown)
VH: EVQLQQSGPELVKTGASVKISCKASGYSFTAYYIHWVKQSHGKSLEWIGHISCFNGATSYNQKFKGKATFTVDTSSSTAYMQFNSLTSEDSAVYYCARRGDFDRPEFAYWGQGTLVTVSA
VL: DIVLTQSPASLAVSLGQRATISCRASESVEYYGTSLMQWYQQKPGQPPKLLIYAASNVESGVPARFSGSGSGTDFSLNIHPVEEDDIAMYFCQQSRKVPWTFGGGTKLEIK
B6: anti-TIM-3 monoclonal antibody 10-O15-A (antibody, V domains shown)
VH: QVQLQQSGADLVRPGASVKLSCKALGYTFTDYEMHWVKQTPVHGLEWIGAIHPGSGGTAYNQKFKGKATLTADKSSSTAYMELSSLTSEDSAVYFCSRSYYRYTGYFDVWGAGTTVTVSS
VL: DIVLTQSPASLAVSLGQRATISCRASKSVSASGYSYMHWYQQKPGQPPKLLIYLASNLESGVPARFSGSGSGTDFTLNVHPVEEEDAATYYCQHSRELPFTFGSGTKLEIK
B7: anti-TIM-3 monoclonal antibody 18-N1-A (antibody, V domains shown)
VH: QVQLQQPGAELVRPGVSVKLSCKASGYTFTSYWMHWIKQRPEQGLERIGEINPSNGGTNYNEKFKNKATLTVDKSSSTAYMQLSSLTSEDSAVYYCARSYYTYDAIDYWGQGTSVTVSS
VL: DIVMSQSPSSLAVSAGEKVTMSCKSSQSLLNSRTRKNYLAWYQQKPGQSPKLLIYWASTRESGVPDRFTGSGSGTDFTLTISSVQAEDLAVYYCKQSYNLYTFGGGTKLEIK

Target: cynomolgus TIM-3 (cynomolgus)
Experiment: BLI (OCTET Red96), mAb on anti-mouse Fc biosensor, antigen in solution, 1:1 model

Binder	Kd [nM]
B1	6.4
B2	5.2
B3	7.5
B4	6.5
B5	6.7
B6	2.9
B7	14
